Tests used:
[1] = target: SpsD_(520-846) (C domain, connecting region of SpsD) (Staphylococcus pseudintermedius ED99); assay: SPR; Biacore X100; SpsD520-846 or SpsL538-823 covalently immobilised on CM5 chips; 2-fold dilution series of Fn in PBS with 0.005% Tween 20, 30 ul/min, 22°C; steady-state response fitted to the Langmuir equation (one-site model)
[2] = target: SpsL_(538-823) (R domain, repetitive region of SpsL) (Staphylococcus pseudintermedius ED99); assay: as above
[3] = target: Human fibronectin purified from plasma (human); assay: single-molecule force spectroscopy (AFM); AFM tips functionalized with Fn (EDC/NHS) against bacteria immobilised on polystyrene, PBS, room temperature, applied force 250 pN, approach and retraction 1,000 nm/s, contact time 100 ms
[4] = target: Human fibronectin purified from plasma (human); assay: single-cell force spectroscopy (AFM); single bacterium on a polydopamine colloidal probe against Fn-coated gold substrates in PBS, room temperature, applied force 250 pN, approach and retraction 1,000 nm/s, contact time 100 ms
[5] = target: Human fibronectin purified from plasma (human); assay: single-molecule force spectroscopy (AFM), dynamic force spectroscopy; Fn tips against immobilised bacteria, PBS, room temperature; retraction speeds 0.5, 1, 3, 5 and 10 um/s to vary the loading rate

Human fibronectin purified from plasma (natural protein)
Kd [1]: 1.2 nM | Kd [2]: 50 nM

SpsL on the surface of S. pseudintermedius ED99 spsD mutant cells (natural protein)
adhesion force (3 cells) [3]: 158 pN | adhesion force (3 cells) [4]: 168 pN | frequency of adhesive force curves [4]: 66%

SpsD on the surface of S. pseudintermedius ED99 spsL mutant cells (natural protein)
unbinding force (cell 1) [3]: 1500 pN | unbinding force (cell 2) [3]: 1700 pN | unbinding force (cell 3) [3]: 1820 pN | bond strength at low tensile force [5]: 0.25 nN | bond strength under mechanical tension [5]: 2 nN | adhesion force (cell 1) [4]: 1440 pN | adhesion force (cell 2) [4]: 1750 pN | adhesion force (cell 3) [4]: 1540 pN

Reference: article PMC7343985
